The test system of this data set is 75 aa long oligopeptide with the correct sequence of amino acids 351-399 of the α2 subunit of the GABAA receptor.

recombinant p42 MAP Kinase (Erk2) (New England Biolabs), sequence (P28482 2-360): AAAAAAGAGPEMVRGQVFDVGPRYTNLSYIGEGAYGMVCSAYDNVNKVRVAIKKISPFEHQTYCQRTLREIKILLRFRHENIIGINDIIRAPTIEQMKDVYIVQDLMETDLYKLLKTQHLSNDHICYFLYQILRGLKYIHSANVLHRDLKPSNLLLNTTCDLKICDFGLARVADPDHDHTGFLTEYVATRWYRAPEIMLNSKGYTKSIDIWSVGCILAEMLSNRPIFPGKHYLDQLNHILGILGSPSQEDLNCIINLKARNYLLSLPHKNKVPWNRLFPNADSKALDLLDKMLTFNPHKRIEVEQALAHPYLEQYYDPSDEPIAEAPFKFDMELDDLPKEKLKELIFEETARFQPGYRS

Consider “recombinant p42 MAP Kinase (Erk2) (New England Biolabs)”, for which the “average share of total phosphorylation at each of the other nine Ser/Thr residues (in vitro kinase assay, ^32P incorporation)” value is “the other nine Ser/Thr residues are phosphorylated at an average of 4% each”; the “incorporation of ^32P as a readout of phosphorylation (in vitro kinase assay)” value is listed as “the construct with the wildtype sequence shows a much higher incorporation of ^32P than the second construct with the mutated T393”; the “share of total phosphorylation at T393 (in vitro kinase assay, ^32P incorporation)” value was 63% of total phosphorylation occurs at the putative Erk2 site.

Values taken from patent US20100242127.
